The assay concerns the target T1, Med15 (residues 1-651 Δ239-271, Δ373-483), mediator component (yeast, UniProt P19659 1-651, Δ239–271 | Δ373–483).
T1 sequence (looked up): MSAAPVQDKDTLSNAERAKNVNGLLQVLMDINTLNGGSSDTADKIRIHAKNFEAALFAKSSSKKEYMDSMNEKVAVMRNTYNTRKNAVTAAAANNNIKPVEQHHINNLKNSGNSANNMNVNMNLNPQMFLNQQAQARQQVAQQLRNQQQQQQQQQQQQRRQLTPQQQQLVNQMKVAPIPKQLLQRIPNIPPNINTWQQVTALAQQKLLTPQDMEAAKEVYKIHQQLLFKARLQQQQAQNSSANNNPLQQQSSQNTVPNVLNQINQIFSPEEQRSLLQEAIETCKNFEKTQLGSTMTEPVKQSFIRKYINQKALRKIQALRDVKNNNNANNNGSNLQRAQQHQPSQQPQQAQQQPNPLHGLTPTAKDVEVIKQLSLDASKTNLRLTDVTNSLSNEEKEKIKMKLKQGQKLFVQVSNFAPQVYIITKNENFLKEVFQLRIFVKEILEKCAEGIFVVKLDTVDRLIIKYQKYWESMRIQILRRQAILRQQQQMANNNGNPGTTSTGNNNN
Put plainly: BLI.

B1: Met4 (residues 76 to 160), containing both the UIM and the UIML domains (tandem UBD) (domain or fragment, yeast, UniProt P32389 76-160, looked up)
chain: GNTNLYDHAVTPEILLEQLAYVDNFIPSLDNEFSNVDWNVNTTHNNANNNGADTFSSINANPFDLDEQLAIELSAFADDSFIFPD
modifications: biotin on the Avi tag (BirA)
In the case of B1, the Kd came to 100 nM. This counts as sub-micromolar.

For the origin of these results see article PMC7751889 (Molecular cell, 2019).
